Reference: EP3848397A1 (NANJING UMAB-BIOPHARMA CO., LTD., dated 2021)
Read-outs that look alike come from different tables or passages of the source.

Columns and labels:
Assay in all cases: cell-based or functional assay
[1] = target: T1, OX40 on Jurkat-OX40-NFκB-luciferase reporter cells (UniProt P43489 29-277)
T1 sequence (looked up): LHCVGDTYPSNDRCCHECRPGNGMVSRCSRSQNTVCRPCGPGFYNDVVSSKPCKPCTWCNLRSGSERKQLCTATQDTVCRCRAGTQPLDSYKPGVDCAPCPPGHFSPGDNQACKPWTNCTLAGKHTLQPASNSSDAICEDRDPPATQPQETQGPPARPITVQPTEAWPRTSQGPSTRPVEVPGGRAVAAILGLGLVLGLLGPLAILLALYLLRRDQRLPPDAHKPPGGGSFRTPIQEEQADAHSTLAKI

[2] = target: T1, OX40 on Jurkat-OX40-NFκB-luciferase …; remark: listed apart in the source
[3] = target: T1, OX40 on Jurkat-OX40-NFκB-luciferase …; remark: listed apart in the source

EC50 of NFκB-luciferase reporter activation (FcR-mediated) [1]: 0.0452 ng/mL
Activation activity of OX40 signaling pathway, EC50 [2]: 0.178 nM
Activation activity of OX40 signaling pathway, EC50 [3]: 0.325 nM
B1: MT01-C1 (antibody, human IgG1, V domains shown)
VH: EVQLVQSGAEVKKPGESLKISCKASGYTFTSYVMHWLRQMPGKGLEWMGYINPYNDGTKYNEKFKGQVTISSDKSISTAYLQWSSLKASDTAMYYCANYYGSKFAMDYWGQGTMVTVSS
VL: DIQMTQSPSSVSASVGDRVTITCRASQDISNYLSWYQQKPGGAVKLLIYYTSRLHSGVPSRFSGSGSGTDYTLTISSLQPEDFATYFCQQGITLPWTFGQGTKVEIK
